Source: patent publication US12576154B2, “Conjugates of PSMA-binding moieties with cytotoxic agents” (PHILOCHEM AG, priority 2022, dated 2026)

How the values were obtained:
Format in all cases: in vivo, mice
HT1080.hPSMA tumor [1] = assay: MMAE release from conjugates in HT1080.hPSMA tumor model (comparison and timepoint study); settings: HT1080.hPSMA tumor, n=3
Procedure: (§1) HT1080.hPSMA tumor cells were grown to 90% confluence and detached with Trypsin-EDTA 0.05%. Cells were resuspended in Hank's Balanced Salt Solution (HBSS) at a density of 5×10^7 cells/mL. 100 μL of HT1080.hPSMA cells (5×10^6 cells) were injected subcutaneously in the right flank of female athymic Balb/c AnNRj-Foxn1 mice (6 to 8 weeks of age). Tumors were grown until ˜250 mm^3 volume (average).
Comparison study: 0.1 mL of 50 μM solutions (2% DMSO, PBS, 250 nmol/kg) of the four conjugates (1 to 4) were injected intravenously. The animals were sacrificed in groups of 3 after 24 h, and blood and the following organs were extracted: HT1080.hPSMA tumor, heart, lungs, liver, kidney, spleen, stomach. The blood fraction was centrifuged, and the plasma (supernatant) was extracted. The organs were stored at −80° C. before being used for further analysis.
(§2) Timepoint study: 0.1 mL of a 50 μM solution (2% DMSO, PBS, 250 nmol/kg) of conjugate 1 was injected intravenously into the tail vein of the mice. The animals were sacrificed in groups of 3 after 6 h, 24 h, 48 h, and 72 h, and blood and the following organs were extracted: HT1080.hPSMA tumor, heart, lungs, liver, kidney, spleen, stomach. The blood fraction was centrifuged, and the plasma (supernatant) was extracted. The organs were stored at −80° C. before being used for further analysis.
Frozen plasma (50 μL) and mouse tissues (˜50 mg) were thawed, and 500 μL of PBS was added. Samples were kept on ice, and 50 μL solution of internal standard (d8-MMAE, 50 nM) was added. Samples were then homogenized at 4° C. with a tissue lyser for 2 minutes at 30 Hz for 4 cycles. After homogenization, samples were centrifuged (21'000 g, 10 min). Subsequently, 100 μL of supernatants were collected and added to 900 μL of acetonitrile (ACN) to induce protein precipitation. After centrifugation (21'000 g, 10 min), 800 μL of supernatants were collected and dried at room temperature with a vacuum centrifuge. Pellets were then resuspended in 20 μL of an aqueous solution containing 3% ACN and 0.1% of HCOOH, and 5 μL were injected into the UHPLC-MS system. Chromatographic separation was carried out on a Hypersil Gold C18 column (100 mm×2.1 mm, 1.9 μm particle size, 175 Å pore size) column temperature was set at 50° C. and a flow rate of 700 μL/min with a gradient program from 95% A (water+0.1% HCOOH), 5% B (ACN+0.1% HCOOH) to 35% of A in 2.5 minutes, from 35% A to 5% A in 0.4 minutes and 5% A was kept for 1.3 minutes before reconditioning at 95% A. The LC system was coupled to a Q-Exactive mass spectrometer via an Ion Max HESI Source. Ionization was carried out with a spray voltage of 3.5 kV; Sheath gas 40 units; Aux gas 10 units; capillary temperature of 380° C.; Aux gas temperature 450° C.; S-lens RF level 60. The mass spectrometer was operating in targeted Single Ion Monitoring mode (t-SIM) following the molecular ion 718.5113 m/z. The detector was working in positive ionization mode with the following parameters: resolution 70'000 (FWHM at 200 m/z); AGC target of 5×10^4; maximum injection time of 200 ms; isolation window 14 m/z; isolation offset 5 m/z. Peak areas of analytes and internal standards were integrated, and corresponding ratios were calculated. The ratios were then transformed into pmol/g of wet tissue using single-concentration external calibration points and corrected by the total weight of the sample analysed. The percentage of injected dose per gram (% ID/g) was finally calculated by normalizing the value based on the total dose injected into the mouse. Data analysis was performed with Skyline v22.2.0.351.

HT1080.hPSMA xenografts = assay: Payload study and combination therapy with L19-IL2 in HT1080.hPSMA tumor model (tumor volume); settings: conjugates 250 nmol/kg i.v. days 7 and 11; L19-IL2 2.5 mg/kg i.v. days 8, 10, 12; n=3/4
Procedure: as §1, with “a” for “a density of”, “cells/mL density.” for “cells/mL.”, “an average volumes of ˜100” for “˜250”, “was reached.” for “volume (average).”
Tumor-bearing mice were randomized into groups of 3 or 4 animals. A 50 μM solution (2% DMSO, 250 nmol/kg; 100 μL) of Conjugate 1, 5, or 6, L19-IL2 (SEQ ID NO: 10, 0.5 mg/mL, 2.5 mg/kg; 100 μL), PBS (100 μL), or L19-IL2 buffer (NaH2PO4 6.7 mM, NaCl 20 mM, KCl 1.8 mM, Mannitol 133 mM, Tween80 0.1% v/v, Glycerol 1% w/v; 100 μL) was injected intravenously (i.e., systemic administration through tail-vein) with the following schedule:
Groups of Conjugates 1, 5, or 6: two separate injections with a 3-day break in between (day 7 and day 11 after tumor implantation).
L19-IL2 group: three separate injections with a 1-day break in between (day 8, day 10, and day 12 after tumor implantation).
Combination therapy groups: two separate injections of Conjugate 1, 5, or 6 with a 3-day break in between (day 7 and day 11 after tumor implantation) and three separate injections of L19-IL2 with a 1-day break in between (day 8, day 10, and day 12 after tumor implantation). […]

HT1080.hPSMA tumor [2] = assay: MMAE release at different time points in HT1080.hPSMA tumor model (Conjugate 7 vs Conjugate 1)
Procedure: as §1, with “a” for “a density of”, “cells/mL density.” for “cells/mL.”
as §2, with “0.1” for “Timepoint study: 0.1”, “of Conjugate 7” for “of conjugate 1”, “sacrificed” for “sacrificed in groups of 3”, “h, or” for “h, and”, “72 h (n=3/group),” for “72 h,”
Frozen plasma (50 μL) and mouse tissues (˜50 mg) were thawed, and 500 μL of PBS was added. Samples were kept on ice, and 50 μL solution of internal standard (d8-MMAE, 50 nM) was added. Samples were then homogenized at 4° C. with a tissue lyser for 2 minutes at 30 Hz for 4 cycles. After homogenization, samples were centrifuged (21'000 g, 10 min). Subsequently, 100 μL of supernatants were collected and added to 900 μL of acetonitrile (ACN) to induce protein precipitation. After centrifugation (21'000 g, 10 min), 800 μL of supernatants were collected and dried at room temperature with a vacuum centrifuge. Pellets were then resuspended in 20 μL of an aqueous solution containing 3% ACN and 0.1% of HCOOH, and 5 μL were injected into the UHPLC-MS system. […] Peak areas of analytes and internal standards were integrated, and corresponding ratios were calculated. The ratios were then transformed into pmol/g of wet tissue using single-concentration external calibration points and corrected by the total weight of the sample analysed. The percentage of injected dose per gram (% ID/g) was finally calculated by normalizing the value based on the total dose injected into the mouse. […]

Compound: CC[C@H](C)[C@@H]([C@@H](CC(=O)N1CCC[C@H]1[C@H](OC)[C@@H](C)C(=O)N[C@H](C)[C@@H](O)c1ccccc1)OC)N(C)C(=O)[C@@H](NC(=O)[C@H](C(C)C)N(C)C(=O)OCc1ccc(NC(=O)[C@@H]2CCCN2C(=O)CNC(=O)CCCCCN2C(=O)CC(SC[C@H](N)C(=O)NCCCCCC(=O)NC[C@H]3CC[C@H](C(=O)N[C@@H](Cc4ccc5ccccc5c4)C(=O)NCCCC[C@H](NC(=O)N[C@@H](CCC(=O)O)C(=O)O)C(=O)O)CC3)C2=O)cc1)C(C)C (stereo partly drawn) [Conjugate 1]
- Timepoint study of MMAE release (HT1080.hPSMA tumor [1]; 6 h, 24 h, 48 h, 72 h after i.v. 250 nmol/kg): stable payload accumulation in the tumors over an extended time
- MMAE release in tumor (HT1080.hPSMA tumor [1]; 24 hours after intravenous injection, 250 nmol/kg): 4.5 % ID/g
- In vivo anti-tumor activity, monotherapy (tumor volume) (HT1080.hPSMA xenografts): slightly lower anti-cancer efficacy as compared to Conjugate 5
- MMAE release at 6 h (HT1080.hPSMA tumor [2]; 6 h after i.v. 250 nmol/kg, n=3): 200 pmol/g
- MMAE release at highest accumulation point (average) (HT1080.hPSMA tumor [2]; 24 h after i.v. 250 nmol/kg, n=3): approx. 300 pmol/g
- Time of highest accumulation point of released MMAE (HT1080.hPSMA tumor [2]; i.v. 250 nmol/kg, time points 6, 24, 48, 72 h): 24 h
